Where two headings read alike, the source gives them in different places.
B1: AE10-6-AM8 (antibody, V domains shown)
VH: EVQLVQSGAEVKKPGASVKVSCKVSGYTLSELSIHWVRQAPGKGLEWMGGFDPEDGETIYAQKFQGRVTMTEDTSTDTAYMELSSLRSEDTAVYYCATDSAGYWYKFFQHWGQGTLVTVSS
VL: QAVVTQEPSLTVSPGGTVTLTCGSSTGAVTIDHYPYWFQQKPGQAPRTLISDTDDKHSWTPARFSGSLLGGKAALTLSGAQPEDEAEYYCLLDYGGSFVFGGGTKLTVL
notes: converted into IgG
B2: MSL10-AM9 (antibody, V domains shown)
VH: EVQLVESGGGLVQPGRSLRLSCAASGFTFDDYALHWVRQAPGKGLEWVSGIGWDDDMIDYADSVKGRFTISRDNAKNSLYLQMNSLRVEDTALYYCAGNNRGYGGLDVWGQGTTVTVSS
VL: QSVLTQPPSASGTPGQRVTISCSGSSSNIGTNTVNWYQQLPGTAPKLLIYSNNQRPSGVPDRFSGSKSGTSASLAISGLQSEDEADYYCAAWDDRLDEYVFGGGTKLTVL
B3: MSL10-AM2.2 (antibody, V domains shown)
VH: EVQLVESGGGLVQPGRSLRLSCAASGFTFDDYALHWVRQAPGKGLEWVSGIGWEDDMIDYADSVKGRFTISRDNAKNSLYLQMNSLRVEDTALYYCAGNSRGYGGLDVWGQGTTVTVSS
VL: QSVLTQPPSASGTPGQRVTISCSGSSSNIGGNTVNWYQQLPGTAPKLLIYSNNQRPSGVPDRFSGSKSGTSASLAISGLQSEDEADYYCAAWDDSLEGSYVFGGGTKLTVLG
B4: MSL10-AM3 (antibody, V domains shown)
VH: EVQLVESGGGLVQPGRSLRLSCAASGFTFDDYALHWVRQAPGKGLEWVSGIGWDEDMIDYADSVKGRFTISRDNAKNSLYLQMNSLRVEDTALYYCAGNNRGYGGLDVWGQGTTVTVSS
VL: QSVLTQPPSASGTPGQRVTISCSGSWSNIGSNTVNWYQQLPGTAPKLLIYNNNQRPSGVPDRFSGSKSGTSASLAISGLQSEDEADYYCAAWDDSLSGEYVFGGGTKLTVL
B5: MSL10-AM1 (antibody, V domains shown)
VH: EVQLVESGGGLVQPGRSLRLSCAASGFTFDDYALHWVRQAPGKGLEWVSGINWEGDDIDYADSVKGRFTISRDNAKNSLYLQMNSLRVEDTALYYCAGNSRGYGGLDVWGQGTTVTVSS
VL: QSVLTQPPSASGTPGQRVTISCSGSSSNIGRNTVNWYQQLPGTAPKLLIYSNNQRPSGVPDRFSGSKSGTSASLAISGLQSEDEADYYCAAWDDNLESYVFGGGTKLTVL
B6: MSL10-AM4 (antibody, V domains shown)
VH: EVQLVESGGGLVQPGRSLRLSCAASGFTFEDYALHWVRQAPGKGLEWVSGIGWDDDMIDYADSVKGRFTISRDNAKNSLYLQMNSLRVEDTALYYCAGNNRGYGGLDVWGQGTTVTVSS
VL: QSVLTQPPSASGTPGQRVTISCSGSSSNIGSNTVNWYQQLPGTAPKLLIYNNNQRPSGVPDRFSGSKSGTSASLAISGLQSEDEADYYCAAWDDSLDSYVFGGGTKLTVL
B7: MSL10-AM7 (antibody, V domains shown)
VH: EVQLVESGGGLVQPGRSLRLSCAASGFTFEDYALHWVRQAPGKGLEWVSGIGWNDDEIDYADSVKGRFTISRDNSKNSLYLQMNSLRVEDTALYYCAGNNRGYGGLDVWGQGTTVTVSS
VL: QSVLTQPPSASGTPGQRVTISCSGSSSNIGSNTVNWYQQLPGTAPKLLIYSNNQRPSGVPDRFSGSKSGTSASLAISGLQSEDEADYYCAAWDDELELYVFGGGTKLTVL
B8: MSL10-AM11 (antibody, V domains shown)
VH: EVQLVESGGGLVQPGRSLRLSCAASGFTFDDYALHWVRQAPGKGLEWVSGISWHGDFIDYADSVKGRFTISRDNAKNSLYLQMNSLRVEDTALYYCAGNNRGYGGLDVWGQGTTVTVSS
VL: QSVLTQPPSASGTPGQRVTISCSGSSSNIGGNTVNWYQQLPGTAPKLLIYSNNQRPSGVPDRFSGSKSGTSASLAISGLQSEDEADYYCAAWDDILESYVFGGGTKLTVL
B9: MSL10-AM5 (antibody, V domains shown)
VH: EVQLVESGGGLVQPGRSLRLSCAASGFTFDDYALHWVRQAPGKGLEWVSGISWHGDFIDYADSVKGRFTISRDNAKNSLYLQMNSLRVEDTALYYCAGNNRGYGGLDVWGQGTTVTVSS
VL: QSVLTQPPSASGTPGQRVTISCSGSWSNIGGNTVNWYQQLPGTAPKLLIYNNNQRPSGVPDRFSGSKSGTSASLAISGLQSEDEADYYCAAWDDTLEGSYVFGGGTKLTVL
B10: MSL10-AM10 (antibody, V domains shown)
VH: EVQLVESGGGLVQPGRSLRLSCAASGFTFSDYALHWVRQAPGKGLEWVSGISWYGDDIDYADSVKGRFTISRDNAKNSLYLQMNSLRVEDTALYYCAGNIRGYGGLDVWGQGTTVTVSS
VL: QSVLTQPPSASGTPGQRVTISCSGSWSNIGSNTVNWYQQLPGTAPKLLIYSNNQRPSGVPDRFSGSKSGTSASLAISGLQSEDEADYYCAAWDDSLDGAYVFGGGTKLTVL
B11: MSL10-AM2 (antibody, V domains shown)
VH: EVQLVESGGGLVQPGRSLRLSCAASGFTFDDYALHWVRQAPGKGLEWVSGIGWEDDMIDYADSVKGRFTISRDNAKNSLYLQMNSLRVEDTALYYCAGNSRGYGGLDVWGQGTTVTVSS
VL: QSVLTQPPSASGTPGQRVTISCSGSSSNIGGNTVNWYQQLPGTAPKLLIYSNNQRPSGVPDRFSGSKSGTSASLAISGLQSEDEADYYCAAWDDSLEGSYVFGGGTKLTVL
B12: MSL10-AM8 (antibody, V domains shown)
VH: EVQLVESGGGLVQPGRSLRLSCAASGFTFEDYALHWVRQAPGKGLEWVSGIGWDRDFIDYADSVKGRFTISRDNAKNSLYLQMNSLRVEDTALYYCAGNKIGYGGLDVWGQGTTVTVSS
VL: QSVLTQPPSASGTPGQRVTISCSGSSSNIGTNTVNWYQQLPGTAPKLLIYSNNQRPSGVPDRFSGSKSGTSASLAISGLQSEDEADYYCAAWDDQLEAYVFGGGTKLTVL
B13: MSL10-AM6 (antibody, V domains shown)
VH: EVQLVESGGGLVQPGRSLRLSCAASGFTFDQYALHWVRQAPGKGLEWVSGINWDGDYIDYADSVKGRFTISRDNAKNSLYLQMNSLRVEDTALYYCAGNIRGYGGLDVWGQGTTVTVSS
VL: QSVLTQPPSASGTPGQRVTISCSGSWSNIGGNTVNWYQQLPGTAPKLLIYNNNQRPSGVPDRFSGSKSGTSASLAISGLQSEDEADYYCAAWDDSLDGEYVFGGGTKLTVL

Experiments:
Test in all cases: SPR
[1] = target: T1, recombinant rat sclerostin (rat, UniProt Q99P67 24-213, limits assumed)
T1 sequence (looked up): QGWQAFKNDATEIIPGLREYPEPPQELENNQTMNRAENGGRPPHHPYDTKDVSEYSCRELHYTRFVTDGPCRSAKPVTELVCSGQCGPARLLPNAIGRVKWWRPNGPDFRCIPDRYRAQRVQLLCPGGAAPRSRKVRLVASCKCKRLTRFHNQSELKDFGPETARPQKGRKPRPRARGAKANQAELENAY
Description: (§1) The binding of antibodies or anti-sclerostin-TNF DVD to purified recombinant human, cynomolgus monkey (cyno), rat and mouse sclerostin and TNFα was determined by surface plasmon resonance-based measurements with a Biacore T100 or T200 instruments (GE Healthcare Life Sciences, Piscataway, N.J., USA) using running HBS-EP+ (10 mM HEPES [pH 7.4], 150 mM NaCl, 3 mM EDTA, and 0.005% surfactant P20) containing additional 150 mM NaCl, and/or 10 mg/ml carboxymethyl dextran, 0.1 mg/ml BSA at 25° C. All chemicals were obtained from GE Healthcare Life Sciences, Piscataway, N.J., USA or otherwise from a different source as described in the text. Approximately 10,000 RU (or 3000 RU when CM3 chip was used) of goat anti-mouse or anti-human IgG (Fcγ) fragment specific polyclonal antibody (Pierce Biotechnology Inc, Rockford, Ill.) diluted in 10 mM sodium acetate (pH 4.5) was directly immobilized across a CM5 (or CM3) research grade biosensor chip using a standard amine coupling kit according to manufacturer's instructions and procedures at 15 μg/ml. Unreacted moieties on the biosensor surface were blocked with ethanolamine. Modified carboxymethyl dextran surface in flowcells 2, 3 and 4 were used as a reaction surface. Modified carboxymethyl dextran in flow cell 1 was used as the reference surface. Biaevaluation T100 software version 2.0.2, GE Healthcare Life Sciences was used to simultaneously fit association and dissociation phases of all injections (using 1:1 fit analysis with local Rmax). Purified antibodies were diluted in running buffer for capture across goat anti-mouse or anti-human IgG specific reaction surfaces. Antibodies to be captured as a ligand (1 μg/ml) were injected over reaction matrices at a flow rate of 10 μl/minute. The association and dissociation rate constants, kon (unit M-1 s-1) and koff (unit s-1) were determined under a continuous flow rate of 50 μl/minute. […] At the end of each cycle the surfaces were regenerated with 10 s injection of 50 mM NaOH or/and by 10 s injection of 10 mM Glycine pH1.5 at a flow rate of 100 μl/min.

[2] = target: T2, recombinant human sclerostin (human, UniProt Q9BQB4 24-213)
T2 construct: biotinylated in the ELISAs; also called hu sclerostin; hu scl
T2 sequence: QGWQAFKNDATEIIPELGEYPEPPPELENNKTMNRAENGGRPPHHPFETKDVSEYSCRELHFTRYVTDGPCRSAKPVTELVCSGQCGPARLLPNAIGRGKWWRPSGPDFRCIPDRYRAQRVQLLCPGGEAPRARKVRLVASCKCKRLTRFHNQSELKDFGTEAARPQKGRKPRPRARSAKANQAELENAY
Description: as §1

[3] = target: T3, recombinant mouse sclerostin (mouse, UniProt Q99P68 24-211)
T3 construct: also called ms sclerostin; murine sclerostin
T3 sequence (looked up): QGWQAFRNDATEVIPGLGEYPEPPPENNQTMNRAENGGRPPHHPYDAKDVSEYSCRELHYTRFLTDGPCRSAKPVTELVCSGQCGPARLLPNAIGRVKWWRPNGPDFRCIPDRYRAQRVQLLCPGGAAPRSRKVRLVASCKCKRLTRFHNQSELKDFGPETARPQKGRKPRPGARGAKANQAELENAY
Description: as §1

[4] = target: T4, recombinant cynomolgus monkey sclerostin (cynomolgus monkey)
T4 construct: also called cyno sclerostin; Cyno sclerostin
Description: as §1

[5] = target: T2, recombinant human sclerostin; remark: listed apart in the source
Description: (§2) Approximately 10,000 RU (or 3000 RU when CM3 chip was used) of goat anti-mouse or anti-human IgG (Fcγ) fragment specific polyclonal antibody (Pierce Biotechnology Inc, Rockford, Ill.) diluted in 10 mM sodium acetate (pH 4.5) was directly immobilized across a CM5 (or CM3) research grade biosensor chip using a standard amine coupling kit according to manufacturer's instructions and procedures at 15 μg/ml. Unreacted moieties on the biosensor surface were blocked with ethanolamine. Modified carboxymethyl dextran surface in flowcells 2, 3 and 4 were used as a reaction surface. Modified carboxymethyl dextran in flow cell 1 was used as the reference surface. Biaevaluation T100 software version 2.0.2, GE Healthcare Life Sciences was used to simultaneously fit association and dissociation phases of all injections (using 1:1 fit analysis with local Rmax). Purified antibodies were diluted in running buffer for capture across goat anti-mouse or anti-human IgG specific reaction surfaces. Antibodies to be captured as a ligand (1 μg/ml) were injected over reaction matrices at a flow rate of 10 μl/minute. The association and dissociation rate constants, kon (unit M-1 s-1) and koff (unit s-1) were determined under a continuous flow rate of 50 μl/minute. […] At the end of each cycle the surfaces were regenerated with 10 s injection of 50 mM NaOH or/and by 10 s injection of 10 mM Glycine pH1.5 at a flow rate of 100 μl/min. Instrument appropriate Biaevaluation software, GE Healthcare Life Sciences was used to simultaneously fit association and dissociation constants as well as KD (using 1:1 global fit analysis with local Rₘₐₓ). Binding was recorded as a function of time and kinetic rate constants are calculated. In this assay, on-rates as fast as 10⁷ M⁻¹ s⁻¹ and off-rates as slow as 10⁻⁶ s⁻¹ can be measured.

[6] = target: T1, recombinant rat sclerostin; remark: listed apart in the source
[7] = target: T3, recombinant mouse sclerostin; remark: listed apart in the source
[8] = target: T4, recombinant cynomolgus monkey sclerostin; remark: listed apart in the source
Description: as §2

Row | Binder | Kd [5] [nM] | koff [5] [s⁻¹] | kon [5] [M⁻¹ s⁻¹] | binding result [6] | binding result [7] | Kd [8] [nM] | koff [8] [s⁻¹] | kon [8] [M⁻¹ s⁻¹] | further results
1 | B1 | – | – | – | – | – | – | – | – | Kd [1]: 0.034 nM; koff [1]: 5.9e-05 s⁻¹; kon [1]: 1.8e+06 M⁻¹ s⁻¹; Kd [2]: 0.0013 nM; koff [2]: 9.7e-06 s⁻¹; kon [2]: 7.4e+06 M⁻¹ s⁻¹; Kd [3]: 0.0074 nM; koff [3]: 8.2e-05 s⁻¹; kon [3]: 1.1e+07 M⁻¹ s⁻¹; Kd [4]: 0.00039 nM; koff [4]: 3e-06 s⁻¹; kon [4]: 7.7e+06 M⁻¹ s⁻¹
2 | B2 | 0.054 | 5.2e-06 | 96000 | no binding | no binding | – | – | – | –
3 | B3 | 0.33 | 0.00011 | 340000 | no binding | no binding | 0.11 | 6.7e-05 | 600000 | –
4 | B4 | 0.9 | 7.6e-05 | 84000 | no binding | no binding | 1.3 | 0.0001 | 77000 | –
5 | B5 | 0.3 | 1.6e-05 | 52000 | no binding | no binding | 0.42 | 2.3e-05 | 54000 | –
6 | B6 | 5.3 | 0.00073 | 140000 | no binding | no binding | 5.6 | 0.00073 | 130000 | –
7 | B7 | 0.42 | 7.2e-05 | 170000 | no binding | no binding | – | – | – | –
8 | B8 | 0.85 | 7.4e-05 | 88000 | no binding | no binding | – | – | – | –
9 | B9 | 0.97 | 7.4e-05 | 77000 | no binding | no binding | 1.1 | 8.7e-05 | 82000 | –
10 | B10 | 0.29 | 3.9e-05 | 130000 | no binding | no binding | – | – | – | –
11 | B11 | 0.065 | 7.6e-06 | 120000 | no binding | no binding | 0.77 | 8.8e-05 | 110000 | –
12 | B12 | 0.73 | 7.7e-05 | 110000 | no binding | no binding | – | – | – | –
13 | B13 | 3.4 | 0.00055 | 170000 | no binding | no binding | – | – | – | –

Source: patent US20150266977A1 (AbbVie / Abbott, published 2015)
